± gives the standard deviation of the averaged measurements.
These sequences were tested on ATP (assay: switch fluorescence ratio, 500 uM ATP over buffer (Cy3 cluster intensity, sum of 5 cycles each) (fold (ratio)); higher = stronger signal-on switching upon ATP binding; sequences stand for … in TCGTCGGCAGCGTCAGATGTGTATAAGAGACAGTTTTTTTTTTTTTTTTTTTTTTTTT…TC). Details: aptamer strand: ATP DNA aptamer (quencher-CACCTGGGGGAGTATTGCGGAGGAAGG + anchor), 100 nM annealed; ATP concentration: 500 uM.
Outline: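 After annealing to 100 nM quencher-labelled ATP aptamer, Cy3-labelled switching-strand clusters on a modified Illumina MiSeq flow-cell were imaged in selection buffer. A second image followed after 15 min with 500 uM ATP at 22 °C, and five such buffer/ATP cycles were done, each separated by NaOH stripping and re-annealing. The fluorescence ratio, averaged per switch-domain sequence, is summed target-cycle over summed buffer-cycle Cy3 intensity per cluster, with clusters outside 100-1000 RFU excluded.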
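Also: ATP exposure 15 min at 22 °C before imaging.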

| Sequence | switch fluorescence ratio |
| --- | --- |
| AAGAAGTTTT | 1 ± 0.035 |
| TGTTAGGAGA | 1 ± 0.018 |
| TTGTATTAGT | 0.9835 ± 0.0093 |
| GCACCCGTAC | 1.52 ± 0.037 |
| TTTATCAAAA | 0.993 ± 0.012 |
| TGTGGTGGCG | 0.935 ± 0.018 |
| TTTCACAATC | 1.07 ± 0.076 |
| GGGGGACCTA | 0.946 ± 0.026 |
| CAGGTGTATG | 1.273 ± 0.0042 |
| ATGTGAGGGA | 0.991 ± 0.02 |
| ATGCAATCAT | 1.038 ± 0.0026 |
| GCGGCCTGGG | 1.02 ± 0.049 |
| AAAGATTCGA | 0.996 ± 0.01 |
| GACCTGTAAT | 1.025 ± 0.0013 |
| ACGGGGTAGA | 1.03 ± 0.052 |
| ACGGATTTAG | 1.024 ± 0.01 |
| TGAAGTATTT | 1 ± 0.037 |
| GAGGTATCAT | 0.9847 ± 0.0073 |
| TGTTTTGAAT | 1.006 ± 0.0096 |
| GGGCGCATCG | 0.999 ± 0.018 |
| ACTTAAAAGC | 1 ± 0.019 |
| GGGGATCGCC | 1.01 ± 0.03 |
| GTTGTTAATT | 1.01 ± 0.029 |
| CTACGGGGCG | 1.01 ± 0.061 |
| CCGTATGTTT | 1.11 ± 0.091 |

| Sequence | switch fluorescence ratio |
| --- | --- |
| CGCTTAGATT | 0.997 ± 0.025 |
| ACGCCGGGGG | 1.01 ± 0.031 |
| GGGTGGGGAT | 1 ± 0.02 |
| AGTTATTTGC | 0.997 ± 0.024 |
| CGTCGGGGAT | 1 ± 0.037 |
| GGTTCAGCGG | 0.959 ± 0.035 |
| AGGCATCGGA | 0.9953 ± 0.0063 |
| ACGACCTTGT | 1.03 ± 0.018 |
| AGGGAAGGGC | 1.032 ± 0.0084 |
| AAAGGTAATC | 1.01 ± 0.023 |
| ATTCAAATGT | 1 ± 0.03 |
| CAAAAAGGGA | 1.0178 ± 0.00094 |
| TGGAGTTTTT | 0.985 ± 0.032 |
| GCGGGAAGCT | 1.05 ± 0.044 |
| TTGGATGTTG | 1.01 ± 0.034 |
| GAGTTAGTTG | 0.987 ± 0.093 |
| TGCGACATGT | 0.969 ± 0.027 |
| TAAGTGGTCG | 1.03 ± 0.036 |
| TCAAAACTTG | 1.01 ± 0.057 |
| GGGATGACAG | 1.02 ± 0.072 |
| CGTGGCATTT | 1.03 ± 0.07 |
| TTCGGTCCGT | 0.981 ± 0.026 |
| CAGGCATGGT | 0.9891 ± 0.002 |
| CATGTCTGCT | 0.9777 ± 0.0032 |
| TTACTTTTCG | 1.03 ± 0.057 |

| Sequence | switch fluorescence ratio |
| --- | --- |
| GTTCACCGGG | 1.141 ± 0.0051 |
| TTCCGGCTCT | 1.61 ± 0.8 |
| CGGGGAATTT | 1.01 ± 0.022 |
| TTTGCTGACG | 1.02 ± 0.055 |
| AAGGTCTGGT | 0.985 ± 0.038 |
| CGTTTTTGAA | 0.99 ± 0.025 |
| TTTTGGGATA | 1.03 ± 0.025 |
| CATGGTTTTG | 1 ± 0.023 |
| TTAAAGTCGA | 1.0194 ± 0.00069 |
| GGCCATACGT | 1.09 ± 0.094 |
| AGATTAGAT | 0.993 ± 0.015 |
| AATTAGTGGG | 0.995 ± 0.025 |
| TGGGTTTGGT | 1.01 ± 0.014 |
| TGTAAGGTTT | 1.01 ± 0.024 |
| AAAGTGTGCG | 1.01 ± 0.023 |
| TTTTAACGAA | 1.01 ± 0.013 |
| GAGGTGAAGG | 1.04 ± 0.055 |
| TCTGGAAGGT | 1.04 ± 0.053 |
| TTATGGTGGT | 0.973 ± 0.027 |
| CGAGTTCGTT | 1 ± 0.025 |
| AGGGTGACGG | 1.02 ± 0.031 |
| GGGGGGTTGA | 1.1 ± 0.2 |
| TTCCTCCTTC | 1.83 ± 0.89 |
| TAATTAAATA | 1.04 ± 0.038 |
| CAACACGGTG | 1.08 ± 0.038 |

| Sequence | switch fluorescence ratio |
| --- | --- |
| TTTAGGTTCG | 0.972 ± 0.028 |
| AGGGTTTGTG | 1.11 ± 0.037 |
| GGGTTAACGT | 0.987 ± 0.017 |
| ATATTCTAGA | 0.989 ± 0.029 |
| CAATAGAAGT | 0.979 ± 0.037 |
| AGGAATGCAA | 1.09 ± 0.017 |
| ACATAATGTG | 1.06 ± 0.013 |
| CGACTTACAT | 1.24 ± 0.057 |
| GGATTAGCGA | 0.975 ± 0.025 |
| CGAAAAGTTG | 1.01 ± 0.048 |
| ATGTAACATG | 1 ± 0.027 |
| TTTCAGGCTT | 1.14 ± 0.13 |
| AGGGGGAAGC | 1.02 ± 0.027 |
| GGTTCTTCGG | 0.9938 ± 0.0066 |
| CGGGTTTTTT | 0.988 ± 0.032 |
| GATCATAGGG | 1.01 ± 0.018 |
| TAGACACAGC | 1.02 ± 0.12 |
| GTGAAGGGGA | 1.09 ± 0.11 |
| GTAGTAGCTT | 1.017 ± 0.003 |
| TTTTTTCACT | 1.17 ± 0.34 |
| TCGAAAATGT | 1.01 ± 0.081 |
| GCGTGGAGA | 1 ± 0.03 |
| TCAACTATGG | 0.989 ± 0.075 |
| AGGGTGAATA | 1.005 ± 0.0027 |
| ATGTCACTGT | 1.01 ± 0.043 |

| Sequence | switch fluorescence ratio |
| --- | --- |
| GGGCTCATTT | 1.01 ± 0.021 |
| TGGTTCTGGG | 0.973 ± 0.013 |
| TCAAAATGTG | 0.958 ± 0.015 |
| TAGGGACTCT | 0.995 ± 0.014 |
| GTTGTGATAG | 1.01 ± 0.021 |
| TTTCATTTTT | 0.999 ± 0.035 |
| ATTGCCGAGT | 1.03 ± 0.022 |
| TCATCGGGTC | 1.05 ± 0.017 |
| TAATAGGCCT | 1.026 ± 0.01 |
| TTGTATAGGA | 0.998 ± 0.029 |
| GCCGTTTTGG | 1 ± 0.034 |
| TACCATGACC | 1.109 ± 0.0081 |
| CAGCGGCTTT | 0.977 ± 0.032 |
| GGGGTTGACA | 1.04 ± 0.051 |
| GGGGGTGTGG | 0.999 ± 0.035 |
| TTAAGGGTTT | 1.01 ± 0.047 |
| TGGGAACGGG | 0.983 ± 0.018 |
| TTGTAAATGA | 1.02 ± 0.015 |
| TTAAGTGTAG | 1 ± 0.021 |
| TGCGGGGTCG | 1.01 ± 0.016 |
| TTAATCTTAA | 0.972 ± 0.018 |
| AGAATTGCGG | 0.98 ± 0.044 |
| GAGGGAGTGG | 1.01 ± 0.037 |
| CCGGGCCAGG | 1.255 ± 0.0081 |
| TTGGATGTAC | 1.14 ± 0.15 |

| Sequence | switch fluorescence ratio |
| --- | --- |
| TCAGGGTTGA | 1.03 ± 0.044 |
| TCGGTCATGG | 0.993 ± 0.023 |
| TGCATATATA | 1.29 ± 0.36 |
| CGTTCGGGGT | 0.981 ± 0.012 |
| GTAGTTTGCG | 0.928 ± 0.12 |
| TATTTTGACG | 0.9151 ± 0.0046 |
| CTAGATGCTT | 1.012 ± 0.0096 |
| TTCTTCGACA | 1.08 ± 0.034 |
| CGGGTTAGGA | 1.02 ± 0.036 |
| GATCAGGTCT | 0.987 ± 0.032 |
| TTAACTAGGG | 0.974 ± 0.037 |
| GAGGGTTAC | 1.006 ± 0.0062 |
| GGTGTGCTGT | 0.957 ± 0.031 |
| AGCGGCCTAA | 0.987 ± 0.014 |
| ACGGGCACTT | 1.12 ± 0.041 |
| TGGGGAATAA | 1.01 ± 0.022 |
| CAAGTTTATT | 1.001 ± 0.01 |
| TAATTAAGGA | 1.004 ± 0.0096 |
| TTGGGAGTAC | 0.942 ± 0.059 |
| GGGGATGCTG | 0.902 ± 0.21 |
| GCTCTTAGCG | 1.03 ± 0.054 |
| CCGGGGGCTG | 1.04 ± 0.068 |
| TTGTTTGTAG | 1.03 ± 0.052 |
| GGGAGTGTAA | 1 ± 0.033 |
| AGAGGCCAGG | 1.0973 ± 0.00031 |

| Sequence | switch fluorescence ratio |
| --- | --- |
| ATGACGTATT | 1.02 ± 0.052 |
| CTCGGGCACG | 0.989 ± 0.046 |
| TTTCCCGGAT | 1.1 ± 0.14 |
| TTTTTGAGAT | 0.994 ± 0.03 |
| GGTTATAGAC | 0.994 ± 0.012 |
| TGATGATATA | 1.02 ± 0.013 |
| CTTTTTGGGG | 0.981 ± 0.029 |
| TGGGGGCCAT | 0.999 ± 0.014 |
| GAACGCCGGC | 0.939 ± 0.034 |
| TACATGGTTT | 1.01 ± 0.032 |
| AGGGAGGGGT | 0.983 ± 0.021 |
| AGGATTTACT | 1.01 ± 0.026 |
| TTTTCTCTCA | 1.01 ± 0.02 |
| TGAGTCAAGC | 1.01 ± 0.076 |
| TTTGTAATTG | 1.008 ± 0.01 |
| CCGGGGAGTG | 1.14 ± 0.25 |
| AGTCTTGGGG | 0.977 ± 0.019 |
| GAGAGTCCTT | 0.997 ± 0.015 |
| TATTCTACCA | 1.01 ± 0.011 |
| AGGCAGTTGG | 0.966 ± 0.019 |
| ACTGGGTGGA | 1.02 ± 0.034 |
| GTGCAAAATG | 1.0339 ± 0.00075 |
| ACGATCTCCC | 1.31 ± 0.098 |
| TTTTTAGTAG | 1.01 ± 0.03 |
| ACAGTAGGAA | 1.08 ± 0.035 |

| Sequence | switch fluorescence ratio |
| --- | --- |
| GCTTATGAAG | 1.02 ± 0.02 |
| AGAGTAAAGT | 0.98 ± 0.015 |
| AAGGTCAAGG | 1.015 ± 0.0056 |
| TTAAATCATA | 0.99742 ± 0.00093 |
| AAGAAGAACA | 1.02 ± 0.02 |
| GGGGTATCAT | 0.983 ± 0.03 |
| TGTTTGTGGT | 0.987 ± 0.023 |
| GAGAATGGCA | 0.964 ± 0.028 |
| CGGGAAGGCC | 0.98791 ± 0.00011 |
| GCGTTTCCTC | 1.08 ± 0.033 |
| AGTATTTAGG | 0.9808 ± 0.0043 |
| AGTTTGAGTT | 1.02 ± 0.052 |
| TAGGCGGCGA | 1 ± 0.022 |
| CCGAACGTTT | 2.31 ± 0.47 |
| TCAGGACTCG | 0.982 ± 0.035 |
| ATGCAATGTC | 1.38 ± 0.22 |
| TTCGTAATGT | 1.036 ± 0.0083 |
| CTGGGGAAAG | 1.02 ± 0.033 |
| GTCTGGGGGA | 1.03 ± 0.042 |
| TGCAGCATCT | 1.13 ± 0.032 |
| AGTTGAGTCT | 0.981 ± 0.067 |
| GGTTCGGGTG | 1.075 ± 0.0041 |
| TTGTGTTTGT | 1 ± 0.03 |
| GCCAGCGATC | 2.23 ± 0.81 |
| GGGGGGAATA | 1 ± 0.047 |

Source: the supplement of paper PMC10126150
